Here are results for three molecules from patent US20220220214A1 (AB INITIO BIOTHERAPEUTICS, published 2022).

Assay [1] deals with T1, apelin (APJ) receptor on APJ-expressing cells (Homo sapiens (Human), UniProt P35414 1-380).
T1 construct: also called apelin (APJ)-expressing cells; target cells
T1 sequence: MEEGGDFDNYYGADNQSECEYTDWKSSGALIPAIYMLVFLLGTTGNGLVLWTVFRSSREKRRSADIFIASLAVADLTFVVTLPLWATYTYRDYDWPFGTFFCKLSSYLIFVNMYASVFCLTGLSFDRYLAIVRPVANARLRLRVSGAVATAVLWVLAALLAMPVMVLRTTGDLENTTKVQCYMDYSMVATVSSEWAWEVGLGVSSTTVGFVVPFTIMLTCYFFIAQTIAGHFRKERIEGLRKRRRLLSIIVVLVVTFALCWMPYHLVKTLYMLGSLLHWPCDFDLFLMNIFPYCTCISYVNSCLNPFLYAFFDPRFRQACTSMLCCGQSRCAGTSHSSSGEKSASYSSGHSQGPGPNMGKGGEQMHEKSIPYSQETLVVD
The assay is described as follows: method not stated (Example 2).

Assay [2] concerns the target T1, apelin (APJ) receptor on APJ-expressing …. The assay can be described thus: cell-based or functional assay.
Assay [3] has as its target T2, mouse APJ receptor expressed on CT26 cells (mouse, UniProt Q9WV08 1-377).
T2 construct: whole, on cells
T2 sequence (looked up): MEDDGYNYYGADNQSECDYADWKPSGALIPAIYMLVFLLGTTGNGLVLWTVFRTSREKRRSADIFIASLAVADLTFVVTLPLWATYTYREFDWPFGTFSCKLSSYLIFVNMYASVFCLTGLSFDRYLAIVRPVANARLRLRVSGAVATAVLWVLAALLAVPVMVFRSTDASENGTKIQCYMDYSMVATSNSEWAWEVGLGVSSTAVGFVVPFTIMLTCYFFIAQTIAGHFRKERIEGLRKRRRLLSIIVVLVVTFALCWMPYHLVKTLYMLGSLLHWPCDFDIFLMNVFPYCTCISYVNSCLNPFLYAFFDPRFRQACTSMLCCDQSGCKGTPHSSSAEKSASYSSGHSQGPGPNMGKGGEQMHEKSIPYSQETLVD
The assay is described as follows: binding to the surface of CT26 cells.

Broadly, the Ki is the dissociation constant of the complex between target and ligand, obtained from inhibition or displacement. Lower therefore signals tighter binding. As usually defined, the Kd is the concentration at which binding is half-saturated. The low end stands for tighter binding, the high end for weaker binding.

B1: VHH-23 (VHH)
VHH: QVQLQESGGGLVQAGGSLRLSCAASGNISPFRAMGWYRQAPGKEREFVAAINTGAITNYADSVKGRFTISRDNAKNTVYLQMNSLKPEDTAVYYCAASCRAYASRIDLFSYHTYWGQGTQVTVSS
notes: Nanobody
On to B1, for which the Ki in assay [1] is 39 nM. Besides, in assay [2], the “Fold suppression (saturated), β-arrestin signaling” value was determined as 8.5 fold.

B2: VHH-22 (VHH)
VHH: QVQLQESGGGLVQAGGSLRLSCAASGNIFRGRVMGWYRQAPGKEREFVAGIDYGASTNYADSVKGRFTISRDNAKNTVYLQMNSLKPEDTAVYYCAARLSERRRLEGYWSAVHVYWGQGTQVTVSS
notes: Nanobody
Molecule B2 returned a Kd in assay [1] of 13 nM. In addition, the “Fold suppression (saturated), β-arrestin signaling” value in assay [2] amounted to 5.9 fold.

B3: VHH-21 (VHH)
VHH: QVQLQESGGGLVQAGGSLRLSCAASGSISVGYLMGWYRQAPGKERELVAGINYGSNTYYADSVKGRFTISRDNAKNTVYLQMNSLKPEDTAVYYCAASQRRAYAARIDLFSYHTYWGQGTQVTVSS
notes: Nanobody; VHH-21-Fc (aglycosylated human IgG1 Fc) was used in vivo; also called negative allosteric modulator VHH-21
In assay [3], B3 returned a Kd of around 100 nM.
